Data taken from US20240383958A1, “APELIN RECEPTOR AGONISTS AND USES THEREOF” (VISTERRA, INC., priority 2023, published 2024).

T1: APJ-eGFP fusion protein on CHO-M1 cells (UniProt P35414 1-380)
T1 sequence (looked up): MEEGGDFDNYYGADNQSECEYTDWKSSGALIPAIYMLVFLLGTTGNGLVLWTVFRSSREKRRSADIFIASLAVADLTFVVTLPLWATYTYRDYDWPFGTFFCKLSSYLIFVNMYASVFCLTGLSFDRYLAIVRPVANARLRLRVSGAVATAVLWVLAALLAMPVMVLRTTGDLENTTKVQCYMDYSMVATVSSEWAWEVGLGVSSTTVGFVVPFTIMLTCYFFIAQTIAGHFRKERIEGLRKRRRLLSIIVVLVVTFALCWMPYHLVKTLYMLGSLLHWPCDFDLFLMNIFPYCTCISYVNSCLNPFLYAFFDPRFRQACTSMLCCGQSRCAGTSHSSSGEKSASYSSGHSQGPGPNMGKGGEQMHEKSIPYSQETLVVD

B1: APL-H: Leader-Fc-linker fusion of apelin analogue QRPRLSHKGPMHW (P12H, F13W) (protein)
chain: MRAWIFFLLCLAGRALADKTHTSPPSPAPEAAGGPSVFLFPPKPKDTLMISRTPEVTCVVVDVSHEDPEVKFNWYVDGVEVHNAKTKPREEQYNSTYRVVSVLTVLHQDWLNGKEYKCKVSNKALPAPIEKTISKAKGQPREPQVYTLPPSREEMTKNQVNLTCLVKGFYPSDIAVEWESNGQPENNYKTTPPVLDSDGSFFLNSTLTVDKSRWQQGNVFSCSVMHEALHNHYTQKSLSLSPGKGGGGSGGGGSGGGGSQRPRLSHKGPMHW
B2: APL-I: Leader-Fc-linker fusion of apelin analogue QRPRLSHKGPAAW (M11A, P12A, F13W) (protein)
chain: MRAWIFFLLCLAGRALADKTHTSPPSPAPEAAGGPSVFLFPPKPKDTLMISRTPEVTCVVVDVSHEDPEVKFNWYVDGVEVHNAKTKPREEQYNSTYRVVSVLTVLHQDWLNGKEYKCKVSNKALPAPIEKTISKAKGQPREPQVYTLPPSREEMTKNQVNLTCLVKGFYPSDIAVEWESNGQPENNYKTTPPVLDSDGSFFLNSTLTVDKSRWQQGNVFSCSVMHEALHNHYTQKSLSLSPGKGGGGSGGGGSGGGGSQRPRLSHKGPAAW
B3: APL-M: Leader-Fc-linker fusion of apelin analogue QRPRLSHWGPMAW (K8W, P12A, F13W) (protein)
chain: MRAWIFFLLCLAGRALADKTHTSPPSPAPEAAGGPSVFLFPPKPKDTLMISRTPEVTCVVVDVSHEDPEVKFNWYVDGVEVHNAKTKPREEQYNSTYRVVSVLTVLHQDWLNGKEYKCKVSNKALPAPIEKTISKAKGQPREPQVYTLPPSREEMTKNQVNLTCLVKGFYPSDIAVEWESNGQPENNYKTTPPVLDSDGSFFLNSTLTVDKSRWQQGNVFSCSVMHEALHNHYTQKSLSLSPGKGGGGSGGGGSGGGGSQRPRLSHWGPMAW
B4: APL-A: Monovalent IgG1 Fc fused via GGGGSGGGGSGGGGS linker to wild-type apelin-13 QRPRLSHKGPMPF (protein)
chain: MRAWIFFLLCLAGRALADKTHTSPPSPAPEAAGGPSVFLFPPKPKDTLMISRTPEVTCVVVDVSHEDPEVKFNWYVDGVEVHNAKTKPREEQYNSTYRVVSVLTVLHQDWLNGKEYKCKVSNKALPAPIEKTISKAKGQPREPQVYTLPPSREEMTKNQVNLTCLVKGFYPSDIAVEWESNGQPENNYKTTPPVLDSDGSFFLNSTLTVDKSRWQQGNVFSCSVMHEALHNHYTQKSLSLSPGKGGGGSGGGGSGGGGSQRPRLSHKGPMPF
B5: APL-L: Leader-Fc-linker fusion of apelin analogue QRPRLQHKNPMAW (S6Q, G9N, P12A, F13W) (protein)
chain: MRAWIFFLLCLAGRALADKTHTSPPSPAPEAAGGPSVFLFPPKPKDTLMISRTPEVTCVVVDVSHEDPEVKFNWYVDGVEVHNAKTKPREEQYNSTYRVVSVLTVLHQDWLNGKEYKCKVSNKALPAPIEKTISKAKGQPREPQVYTLPPSREEMTKNQVNLTCLVKGFYPSDIAVEWESNGQPENNYKTTPPVLDSDGSFFLNSTLTVDKSRWQQGNVFSCSVMHEALHNHYTQKSLSLSPGKGGGGSGGGGSGGGGSQRPRLQHKNPMAW
B6: APL-J: Leader-Fc-linker fusion of apelin analogue QRPRLSHKGPAAY (M11A, P12A, F13Y) (protein)
chain: MRAWIFFLLCLAGRALADKTHTSPPSPAPEAAGGPSVFLFPPKPKDTLMISRTPEVTCVVVDVSHEDPEVKFNWYVDGVEVHNAKTKPREEQYNSTYRVVSVLTVLHQDWLNGKEYKCKVSNKALPAPIEKTISKAKGQPREPQVYTLPPSREEMTKNQVNLTCLVKGFYPSDIAVEWESNGQPENNYKTTPPVLDSDGSFFLNSTLTVDKSRWQQGNVFSCSVMHEALHNHYTQKSLSLSPGKGGGGSGGGGSGGGGSQRPRLSHKGPAAY
B7: APL-K: Leader-Fc-linker fusion of apelin analogue QRPRLQHKNPMAF (S6Q, G9N, P12A) (protein)
chain: MRAWIFFLLCLAGRALADKTHTSPPSPAPEAAGGPSVFLFPPKPKDTLMISRTPEVTCVVVDVSHEDPEVKFNWYVDGVEVHNAKTKPREEQYNSTYRVVSVLTVLHQDWLNGKEYKCKVSNKALPAPIEKTISKAKGQPREPQVYTLPPSREEMTKNQVNLTCLVKGFYPSDIAVEWESNGQPENNYKTTPPVLDSDGSFFLNSTLTVDKSRWQQGNVFSCSVMHEALHNHYTQKSLSLSPGKGGGGSGGGGSGGGGSQRPRLQHKNPMAF
B8: APL-A (Fc fusion)
chain: DKTHTSPPSPAPEAAGGPSVFLFPPKPKDTLMISRTPEVTCVVVDVSHEDPEVKFNWYVDGVEVHNAKTKPREEQYNSTYRVVSVLTVLHQDWLNGKEYKCKVSNKALPAPIEKTISKAKGQPREPQVYTLPPSREEMTKNQVNLTCLVKGFYPSDIAVEWESNGQPENNYKTTPPVLDSDGSFFLNSTLTVDKSRWQQGNVFSCSVMHEALHNHYTQKSLSLSPGKGGGGSGGGGSGGGGSQRPRLSHKGPMPF
B9: APL-I (Fc fusion)
chain: DKTHTSPPSPAPEAAGGPSVFLFPPKPKDTLMISRTPEVTCVVVDVSHEDPEVKFNWYVDGVEVHNAKTKPREEQYNSTYRVVSVLTVLHQDWLNGKEYKCKVSNKALPAPIEKTISKAKGQPREPQVYTLPPSREEMTKNQVNLTCLVKGFYPSDIAVEWESNGQPENNYKTTPPVLDSDGSFFLNSTLTVDKSRWQQGNVFSCSVMHEALHNHYTQKSLSLSPGKGGGGSGGGGSGGGGSQRPRLSHKGPAAW
B10: APL-E (Fc fusion)
chain: DKTHTSPPSPAPEAAGGPSVFLFPPKPKDTLMISRTPEVTCVVVDVSHEDPEVKFNWYVDGVEVHNAKTKPREEQYNSTYRVVSVLTVLHQDWLNGKEYKCKVSNKALPAPIEKTISKAKGQPREPQVYTLPPSREEMTKNQVNLTCLVKGFYPSDIAVEWESNGQPENNYKTTPPVLDSDGSFFLNSTLTVDKSRWQQGNVFSCSVMHEALHNHYTQKSLSLSPGKGGGGSGGGGSGGGGSQRPRLSHKGPHPF
B11: APL-F (Fc fusion)
chain: DKTHTSPPSPAPEAAGGPSVFLFPPKPKDTLMISRTPEVTCVVVDVSHEDPEVKFNWYVDGVEVHNAKTKPREEQYNSTYRVVSVLTVLHQDWLNGKEYKCKVSNKALPAPIEKTISKAKGQPREPQVYTLPPSREEMTKNQVNLTCLVKGFYPSDIAVEWESNGQPENNYKTTPPVLDSDGSFFLNSTLTVDKSRWQQGNVFSCSVMHEALHNHYTQKSLSLSPGKGGGGSGGGGSGGGGSQRPRLSHKGPAPY
B12: APL-H (Fc fusion)
chain: DKTHTSPPSPAPEAAGGPSVFLFPPKPKDTLMISRTPEVTCVVVDVSHEDPEVKFNWYVDGVEVHNAKTKPREEQYNSTYRVVSVLTVLHQDWLNGKEYKCKVSNKALPAPIEKTISKAKGQPREPQVYTLPPSREEMTKNQVNLTCLVKGFYPSDIAVEWESNGQPENNYKTTPPVLDSDGSFFLNSTLTVDKSRWQQGNVFSCSVMHEALHNHYTQKSLSLSPGKGGGGSGGGGSGGGGSQRPRLSHKGPMHW
B13: APL-G (Fc fusion)
chain: DKTHTSPPSPAPEAAGGPSVFLFPPKPKDTLMISRTPEVTCVVVDVSHEDPEVKFNWYVDGVEVHNAKTKPREEQYNSTYRVVSVLTVLHQDWLNGKEYKCKVSNKALPAPIEKTISKAKGQPREPQVYTLPPSREEMTKNQVNLTCLVKGFYPSDIAVEWESNGQPENNYKTTPPVLDSDGSFFLNSTLTVDKSRWQQGNVFSCSVMHEALHNHYTQKSLSLSPGKGGGGSGGGGSGGGGSQRPRLSHKGPMAF
B14: APL-B (Fc fusion)
chain: DKTHTSPPSPAPEAAGGPSVFLFPPKPKDTLMISRTPEVTCVVVDVSHEDPEVKFNWYVDGVEVHNAKTKPREEQYNSTYRVVSVLTVLHQDWLNGKEYKCKVSNKALPAPIEKTISKAKGQPREPQVYTLPPSREEMTKNQVNLTCLVKGFYPSDIAVEWESNGQPENNYKTTPPVLDSDGSFFLNSTLTVDKSRWQQGNVFSCSVMHEALHNHYTQKSLSLSPGKGGGGSGGGGSGGGGSQRPRLSHKGPMVF

How the values were obtained:
[1] = Proteolysis during production detected using mass spectroscopy; assay type: physicochemical; settings: proteolytic stability
Excerpt: Proteolysis during production was detected using mass spectroscopy, which provides insights into the proteolytic stability of the apelin receptor agonists.

[2] = system: APJ-eGFP fusion protein; assay: Internalization assay, CHO-M1 cells expressing APJ-eGFP, high-content imaging; assay type: cell-based; parameters: key: 0: No Internalization; >1000; 2: 100-1000; 3: 10-100; 4: <10; settings: lowest concentration at which maximum internalization was observed; 0.914 nM to 2000 nM
Method: In this example, the internalization of exemplary apelin receptor agonist was assessed. CHO-M1 cells expressing an APJ-eGFP fusion protein were stained and plated in a 96-well plate. Apelin receptor agonists were serially diluted and added to the wells at concentrations ranging from 0.914 nM to 2000 nM. The cells were later imaged using an Operetta CLS™ high-content analysis system. APJ-eGFP signal was measured in the membrane and cytoplasmic region, and the ratio of membrane signal to total signal was calculated (E ratio). An internalization score was assigned based on the lowest concentration of the compound at which maximum internalization was observed. The internalization score for each apelin receptor agonist was plotted against the EC50 values for cAMP signaling and beta-arrestin signaling as shown in FIG. 2 and FIG. 3.

[3] = biological target: T1, APJ-eGFP fusion protein on CHO-M1 cells; assay: cell-based or functional assay

Row | Molecule | Proteolysis During Production? [1] | Internalization Score [2] | Internalization Score [3]
1 | B1 | No | 0 | –
2 | B2 | No | 1 (>1000) | –
3 | B3 | No | 0 | –
4 | B4 | Yes | 2 (100-1000) | –
5 | B5 | No | 0 | –
6 | B6 | No | 1 (>1000) | –
7 | B7 | No | 0 | –
8 | B8 | – | – | 2
9 | B9 | – | – | 1
10 | B10 | – | – | 1
11 | B11 | – | – | 1
12 | B12 | – | – | 0
13 | B13 | – | – | 3
14 | B14 | – | – | 2
